Experimental data: publication PMC6778522

Biological target: PRC2 catalytic core (EZH2-EED-SUZ12 VEFS) (UniProt Q15910;O75530;Q15022 1-746;1-441;545-726)
Test: competition

PRC2 catalytic core (EZH2-EED-SUZ12 VEFS), sequence (Q15910 whole entry, chain 1 of 3): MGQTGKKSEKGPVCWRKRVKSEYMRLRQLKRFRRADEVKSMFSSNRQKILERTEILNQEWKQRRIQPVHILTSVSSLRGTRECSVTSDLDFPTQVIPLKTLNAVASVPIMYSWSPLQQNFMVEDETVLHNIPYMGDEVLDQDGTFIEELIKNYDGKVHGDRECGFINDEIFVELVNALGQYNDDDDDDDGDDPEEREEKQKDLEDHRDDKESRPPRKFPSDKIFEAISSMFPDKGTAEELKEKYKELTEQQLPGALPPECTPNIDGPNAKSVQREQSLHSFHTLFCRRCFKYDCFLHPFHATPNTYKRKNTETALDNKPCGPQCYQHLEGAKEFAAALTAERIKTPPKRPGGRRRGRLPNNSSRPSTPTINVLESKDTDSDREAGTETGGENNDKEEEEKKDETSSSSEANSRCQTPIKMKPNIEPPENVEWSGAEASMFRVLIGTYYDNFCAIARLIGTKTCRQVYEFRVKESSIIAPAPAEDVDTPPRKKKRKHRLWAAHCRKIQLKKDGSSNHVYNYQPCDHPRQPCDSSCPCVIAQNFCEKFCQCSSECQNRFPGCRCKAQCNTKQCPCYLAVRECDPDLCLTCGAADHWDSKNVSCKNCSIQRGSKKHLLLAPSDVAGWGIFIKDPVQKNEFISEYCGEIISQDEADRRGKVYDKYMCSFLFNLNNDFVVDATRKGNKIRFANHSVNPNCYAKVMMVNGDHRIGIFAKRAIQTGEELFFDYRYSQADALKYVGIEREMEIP
PRC2 catalytic core (EZH2-EED-SUZ12 VEFS), sequence (O75530 whole entry, chain 2 of 3): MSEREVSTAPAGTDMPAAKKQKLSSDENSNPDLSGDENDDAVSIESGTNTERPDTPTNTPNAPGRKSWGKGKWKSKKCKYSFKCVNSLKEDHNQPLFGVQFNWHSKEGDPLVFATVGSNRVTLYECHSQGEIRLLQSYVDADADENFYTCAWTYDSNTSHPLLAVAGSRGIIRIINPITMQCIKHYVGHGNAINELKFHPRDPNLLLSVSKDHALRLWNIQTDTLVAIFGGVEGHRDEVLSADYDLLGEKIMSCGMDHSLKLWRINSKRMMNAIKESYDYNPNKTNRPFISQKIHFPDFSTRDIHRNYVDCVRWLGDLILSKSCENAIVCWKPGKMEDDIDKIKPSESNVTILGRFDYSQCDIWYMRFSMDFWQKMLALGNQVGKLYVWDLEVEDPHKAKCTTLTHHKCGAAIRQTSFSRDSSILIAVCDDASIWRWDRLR
PRC2 catalytic core (EZH2-EED-SUZ12 VEFS), sequence (Q15022 545-726, chain 3 of 3): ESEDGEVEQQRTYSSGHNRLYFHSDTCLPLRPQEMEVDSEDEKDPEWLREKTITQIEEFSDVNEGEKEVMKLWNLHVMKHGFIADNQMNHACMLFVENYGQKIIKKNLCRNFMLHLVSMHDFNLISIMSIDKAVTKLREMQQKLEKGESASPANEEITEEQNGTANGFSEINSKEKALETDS

CGGGGGUGGGGGGUGGGGGUGGGU (structured_RNA) [PIM1 G4 RNA competitor]: binds.
